Test: soluble on expression in E. coli; label from the status in PepcDB or PDB records

Soluble on expression in E. coli, soluble:
EPNRLIKEKSPYLLQHAYNPVDWYPWGEEAFEKARKENKPVFLSIGYSTCHWCHMMAHESFEDEEVAGLMNEAFVSIKVDREERPDIDNIYMTVCQIILGRGGWPLNIIMTPGKKPFFAGTYIPKNTRFNQIGMLELVPRIKEIWEQQHEEVLDSAEKITSTIQEMIKESSG
MTHNGGRHLLEAVTLCGSILTRYKRSNMKLDEAEVRALKELFEKYQDILVDGSPGLPTHASGPMIQPPVTNMVAPYDSPTDTIVKFVEGTINLQRPIVEVLHVMNEHLSLVLRAKNTHVFYVDPVNNLLYDPIHGVAAALDESSPIGKAIVSGERLNVAGTLYIPIISEGMPLGCVLSPCGRADYHASTMLESSLRVISTSLKNIIQAEKLNWNKEKAEAMLRMATQLARDNLEETVLASSIMNTVKSLTESARCSLFLVRGDVLEAHFEDGNVVTIPRGAGIAGYVAQTGETVNIVDAYADDRFNREVDKATGYRTKTILCMPVMYEGTIVAVAQLINKLDLTTESGLRLPRVFGKRDEELFQTFSMFAGASLRNCRINDRLLKEKKKSDVILDVVTVLSNTDIRDVDGIVRHALHGAKKLLNADRSTLFLVDKERNELCSRMADSVAGKEIRFPCGQGIAGTVAASGVGENIQDAYQDPRFNREVDKQLGYRTQTILCEPIILNGEILAVVQLVNKLDTSGEVTVFTEDDRETFRVFSLFAGISINNSHLLEFAVKAGREVMELNEHRATLFNKNVPSRAVKRVTAITKVEREAVLVCELPSFDVTDVEFDLFRARESTDKPLDVAAAIAYRLLLGSGLPQKFGCSDEVLLNFILQCRKKYRNVPYHNFYHVVDVCQTIYTFLYRGNVYEKLTELECFVLLITALVHDLDHMGLNNSFYLKTESPLGILSSASGNTSVLEVHHCNLAVEILSDPESDVFGGLEGAERTLAFRSMIDCVLATDMAKHGSALEAFLASAADQSSDEAAFHRMTMEIILKAGDISNVTKPFDISRQWAMAVTEEFYRQGDMEKERGVEVLPMFDRSKNMELAKGQIGFIDFVAAPFFQKIVDACLQGMQWTVDRIKSNRAQWERVLETRLSTSSGNNSSTR
MGSDKIHHHHHHMNVINETANVLKLETGSVTSAKGFSAVGIHTGVKRKRKDLGAIVCEVPASSAAVYTLNKVQAAPLKVTQESIAVEGKLQAMIVNSGIANACTGKRGLDDAYTMRAVGAETFHIPEHYVAVTSTGVIGEFLPMDVITNGIRQLKPEATIEGAHAFNEAILTTDTVEKHTCYQTIVNGKTVTVGGVAKGSGMIHPNMA
MSTVTITDLARENVRNLTPYQSARRLGGNGDVWLNANEYPTAVEFQLTQQTLNRYPECQPKAVIENYAQYAGVKPEQVLVSRGADEGIELLIRAFCEPGKDAILYCPPTYGMYSVSAETIGVECRTVPTLDNWQLDLQGISDKLDGVKVVYVCSPNNPTGQLINPQDFRTLLELTRGKAIVVADEAYIEFCPQASLAGWLAEYPHLAILRTLSKAFALAGLRCGFTLANEEVINLLMKVIAPYPLSTPVADIAAQALSPQGIVAMRERVAQIIAEREYLIAALKEIPCVEQVFDSETNYILARFKASSAVFKSLWDQGIILRDQNKQPSLSGCLRITVGTREESQRVIDALRAEQV
MAKITEENYVSLEDLMQLLNSSESTIRRDLGELEQEGRLHRVHGGAELFHSLQEELSNQEKSVKNSHIKKAIAQRASQLIYDNDVIFIDAGTTTEFLLPFLQAKNLTVVTNSIHHAARLVELSIETIIVGGYVKQTTDASIGNVALEQIRQMNFDKAFLGMNGVDDSYLTTPDMEEAVIKKAVLSNAKLAYILVDGTKIGQVSFVKVAPINDVTIITLGGSASILKQIKEKAKVIEL
MSLNVLIVDDEKLIRQGIINFFDWEKEGFQIVGEAANGKDALELISKNEPHIVMTDIVMPVMDGIDLVKRVKRDFPEVEIIVLSSFEEFEYVRSTFHSGVADYILKPRLNEKDLLKTLSEVRGKIPALAKVDSPSRAVPSISDQFEKILNGHAPLSQDDTGEKRFPKGPYRLAVITPIEEQDVHRRKQHLDEREQAITGIDVVCSIEKEGDAVLLLPLEGDVSSSMKQALDDFLKGRDAHALLVSSPFSSIYEAKEVYERDIPLLKQYSFYLPDTPLLIYDELPKTNEGVKTFDLNHFIELCKGRKFAIGFQYLLDYVEYMSTRYTQTSTECKAFLGNIIFNMIVLMGNLKYDVKELEREKYHYFATINAAKNVREATDCFYQFLEVTKQIISVYSNEGSSSIQKMLAYIEEHHSEPLSLSQLANYFHFNPSYLSAYFRQHHDEGFSEYLNKVRIRKAKEWLKSSTIPISEIYALVGYSDHSYFCKVFKKRTGMPPSRYRRENAEGHHHHHH
MEGCVSNIMICNLAYSGKLDELKERILADKSLATRTDQDSRTALHWACSAGHTEIVEFLLQLGVPVNDKDDAGWSPLHIAASAGRDEIVKALLVKGAHVNAVNQNGCTPLHYAASKNRHEIAVMLLEGGANPDAKDHYDATAMHRAAAKGNLKMVHILLFYKASTNIQDTEGNTPLHLACDEERVEEAKFLVTQGASIYIENKEEKTPLQVAKGGLGLILKRLAEGEEASM

Soluble on expression in E. coli, not soluble:
MGSDKIHHHHHHDSVKTNTNPQQAIQGEWISYSESKINLPKTTSAADAHKLLDLTASTSEKIKFDKKKVTLATNEYDYKLGRQIIIGSYSYDYKLEHGQDILKFDTTSSDIGGNVYYRVGSKLEKEKTKEINDKEAKEKKSVTHLNEVWKAKTDIIEKSLKEAMIGTWSGHFKAVATTGQGVAWAPGMQTLTFDGGTNLSFHASSDSLTNFDQIVIHNAYASYQPNGILGLEPSDHIPVDPKKLLNIIKDLTAEQMFSRIKYIAFSYDVTTDTGTISQSFSPSELSYKNGKLSFDTALLITQCGDEGVQISGDVSKTE
MGSDKIHHHHHHAPLPQAPIPAPSMSLPGFHAPPPSTSNGTVASGAVRTQPARMPFYVATKGKVTIYVLGTLHVGDPADYPANQPFRRPILAALAASPTLALELSPDDLLESQDDVSKYGVCNYACLPRLLPPPLWQKLANRLRGNPAALAGIRNMRPWLASLVVETYDSLSAGLQTEYGTEAQLQNVFLRKKGGKVVGLETLAEQMRAFTGLTLAQQREMLAQDMVQTPAQNAADVRALHRLWRIGDADAIAAWANAKTERLARARSIADSIDNKIVYERNRRFVARMTAIAAPNRPLFVAIGSLHLGGPKGVLELLRQQGYRVDAG
LAGLALAATLLATGKRPVPDQLAGYHETTLSVGHRDVPVSLHIWYPAAQDGTAELVGQNALFYGQYVLRDAKPAPGAHPVVVFSHGSGGNANNHGWLATELARQGMIVVAPNHPGTMSRDSDPHRTPHIWERARDLHAILDSLETNPPLGMQPDMDRVASAGFSLGGFSALSIAGVRVSKAAFIDYCDRHAGEFDCGWMQAASVDFAAIDPAAYEADYRDPRIKATVSIDPALPQAMTGDSLTAATLPILLVSLGQGEEVPPATRVDAMARQMPQARLVETPGAWHFSFLSECSTLGWIIIGLMGEENICSDIGMRDRGVLHEELKAVISTFLS
MSLEFLQRDQAPLTAEEWEQIDKTAYEVFKSTVVCRKFMPVVGPFGAGHQVVSYDVLYGVEPGVCEVKPGQEYKVCEPVRTGERKHVPVPTLYKDFVISWRDLEHWRQFNLPVDTTGVAAAASSLAVAEDKLILFGNQEMGIEGFLTAKGTLREELSDWEKVGNAFQDVVKGISRLVEKGFYTNYYLIVNPKRYFLLNRIHDNTGLLELEQIKKVVKEVYQTPIIPEDIVLLVSASPANFDLAIALDVNVAFVETSNMNHTFRVMEMVVPRIKRPEAILIFSSEGHHHHHH
MGSDKIHHHHHHMSSSDRYMQRGVSSQKEDVHKAIKSIDKGIYPRAFCKIIPDILGGDPEYCNIMHADGAGTKSSLAYVYWKETGDISVWKGIAQDAVIMNIDDLICVGAVDNILLSSTIGRNKNLIPGEVLAAIINGTEEVLQMLRDNGIGIYSTGGETADVGDLVRTIIVDSTVTCRMKRQDVISNENIKAGNVIVGFASYGQTSYETEYNGGMGSNGLTSARHDVFNNVLASKYPESFDPKVPENLVYSGEMNLTDPYLNVPLDAGKLVLSPTRTYAPLMKEIIHQYKGKLDGVVHCSGGGQTKVLHFTDATTHIIKDNLFDVPPLFQLIQGQSNTPWEEMYKVFNMGHRLEIYTDAAHAEGMIAIAKKFNIEAKIIGRVEAPVAGKRLTITGPQGTEYTYA

Source: the DeepSol protein solubility set
